Experiment [1] has as its target TGF-β1 (UniProt P01137). In words: cell-based or functional assay.
In a further experiment the target is TGF-β3 (UniProt P10600). In words: cell-based or functional assay.
For experiment [2], the target named is TGF-β1 (UniProt P01137).
For experiment [3], the target named is TGF-β1 (UniProt P01137). The source holds these as a separate data set.

Like-named read-outs stand apart in the source and are kept apart here.

Sequence of T22d35 (P37173 other isoform, or with tags, fused parts or gaps limits assumed): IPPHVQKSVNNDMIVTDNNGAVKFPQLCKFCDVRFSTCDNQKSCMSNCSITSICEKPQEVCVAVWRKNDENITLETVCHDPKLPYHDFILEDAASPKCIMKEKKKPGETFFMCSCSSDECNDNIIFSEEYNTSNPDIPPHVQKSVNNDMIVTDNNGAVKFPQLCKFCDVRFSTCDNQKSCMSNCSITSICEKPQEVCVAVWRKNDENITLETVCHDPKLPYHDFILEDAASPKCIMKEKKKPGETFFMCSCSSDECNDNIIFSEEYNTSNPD
Sequence of TGF-β1 (P01137 279-390 limits assumed): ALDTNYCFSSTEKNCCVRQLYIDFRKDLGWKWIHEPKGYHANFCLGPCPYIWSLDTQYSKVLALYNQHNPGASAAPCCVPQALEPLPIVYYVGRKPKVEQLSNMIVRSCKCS
Sequence of TGF-β3 (P10600 301-412 limits assumed): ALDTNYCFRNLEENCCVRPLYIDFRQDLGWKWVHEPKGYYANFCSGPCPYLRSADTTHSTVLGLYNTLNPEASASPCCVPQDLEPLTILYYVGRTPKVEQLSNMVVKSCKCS

Consider T2-hIgG1Fc fusion from R&D, for which the results for the Av IC50, TGF-β neutralization, Mv1Lu cell luciferase reporter assay in the experiment with TGF-β1 [1] and with TGF-β3 were 506 pM and 323 pM, respectively.

In the experiment with TGF-β1 [2], “T22d35 (from UniProt P37173 24-222) (receptor)” gave a Fold Change Fc-T2m, A549 cell IL-11 release assay [table] of 0.1 fold; a Fold Change T22d35, A549 cell IL-11 release assay [table] of 1 fold; an IC50, A549 cell IL-11 release assay [table] of 580 pM. Further, in the experiment with TGF-β1 [3], the IC50, A549 cell IL-11 release assay [table] is 526 pM. In the experiment with TGF-β1 [1], the Av IC50, TGF-β neutralization, Mv1Lu cell luciferase reporter assay stood at 1230 pM; the IC50, A549 cell IL-11 release assay was 500 pM; the IC50, A549 cell IL-11 release assay (second set, FIG. 4C) was determined as 500 pM. In the experiment with TGF-β3, this substance displayed an Av IC50, TGF-β neutralization, Mv1Lu cell luciferase reporter assay of 33 pM.

Values taken from US20200231652A1.
